In patent US11839630B2, “CAR-T cells targeting IL-1RAP and their use” (ETABLISSEMENT FRANCAIS DU SANG, priority 2017, dated 2023):
Several values for one entry are separate records, joined by “and”; a condition that tells them apart may be missing. Equal values may be shown once.

Assays:
[1] = tested on: IL-1RAP+ leukemia expressing stem cells CD34+CD38+ or CD34+CD38-; assay: Flow cytometry immunophenotyping of primary cells from CML patients; format: binding, human; details: bone marrow or peripheral blood of patient at diagnosis or after 12 months of Imatinib
Text: FIG. 3: Immunophenotyping on peripheral blood (PM) or bone marrow (BM) of 2 CML positive patients at diagnosis (Diag) or after Imatinib (IM) treatment. IL-1RAP (#E3C3) was used in combination with CD34+ and CD38− fluorescent staining. Fluorochrome-conjugated isotype control mAbs from the different mAbs were systematically used.
Hematopoietic stem cells from CML patients were tracked using a panel of CD45, CD34, CD38, CD33, CD133, CD117 including murine Alexa Fluor® 488 labelled IL-1RAP antibody clone #E3C3. Transduced cells were stained using a panel of antibodies including CD3, CD4, CD8, and CD19 in order to differentiate helper or cytotoxic GMTC. Naïve, central or memory T cells subsets were analyzed using a panel of CD45RA, CD62L, CD95, CCR7 monoclonal antibodies. Cells were collected using a FACSCANTO™ II cytometer (BD Biosciences, Le Pont de Claix, France) and analyzed using the DIVA 6.1 software (BD Biosciences, Le Pont de Claix, France).
Immunophenotyping on peripheral blood or bone marrow of 2 CML-positive patients without or after Imatinib (TKI) treatment has been performed. IL-1RAP (#E3C3) was used in combination with CD34^+ and CD38^− fluorescent staining. Fluorochrome-conjugated isotype control monoclonal antibodies from the different monoclonal antibodies were systematically used.

[2] = tested on: HMEC-1 endothelial cell line; assay: Staining of HMEC-1 dermal endothelial cell line; format: binding, human; details: flow cytometry staining
Text: (§1) FIG. 22: (A) Tissue microarray. Representative #A3C3 staining of an US Food and Drug Administration standard frozen tissue array, including 90 tissue cores (30 organs) of 3 individual donors per organ (US Biomax, Rockville, MD, USA). Immunostaining was detected using the UltraView Universal DAB Detection Kit (Ventana, USA). Images were acquired and analyzed with NDP.view 2.0 software. […] (Scale bars, 100 μm.) High IL-1RAP (KU812)— or negative (Raji)-expressing cell lines were respectively used as positive or negative controls. (B) IL-1RAP R&D (red) or #A3C3 (blue) staining of HMEC-1 dermal endothelial cell line. Isotype IgG1 (gray) is depicted as overlay. RFI is provided for both staining.

IL-1RAP = target: T1, IL-1RAP (Homo sapiens, UniProt Q9NPH3); assay: Immunostaining of FDA standard frozen normal tissue array; format: binding; set-up: FDA standard frozen tissue arrays, including 90 tissue cores (30 organs) of 3 individual donors per organ; tissue US Biomax; host or cells: FDA standard frozen normal human tissue array (30 organs, 3 donors each); key to Staining intensity (0 to 3+): negative (0); weak staining (1+); moderate staining (2+); strong staining (3+); details: for normal tissues in which staining was detected: 30 normal human tissues, 3 donors per organ
T1 sequence (Q9NPH3 21-570): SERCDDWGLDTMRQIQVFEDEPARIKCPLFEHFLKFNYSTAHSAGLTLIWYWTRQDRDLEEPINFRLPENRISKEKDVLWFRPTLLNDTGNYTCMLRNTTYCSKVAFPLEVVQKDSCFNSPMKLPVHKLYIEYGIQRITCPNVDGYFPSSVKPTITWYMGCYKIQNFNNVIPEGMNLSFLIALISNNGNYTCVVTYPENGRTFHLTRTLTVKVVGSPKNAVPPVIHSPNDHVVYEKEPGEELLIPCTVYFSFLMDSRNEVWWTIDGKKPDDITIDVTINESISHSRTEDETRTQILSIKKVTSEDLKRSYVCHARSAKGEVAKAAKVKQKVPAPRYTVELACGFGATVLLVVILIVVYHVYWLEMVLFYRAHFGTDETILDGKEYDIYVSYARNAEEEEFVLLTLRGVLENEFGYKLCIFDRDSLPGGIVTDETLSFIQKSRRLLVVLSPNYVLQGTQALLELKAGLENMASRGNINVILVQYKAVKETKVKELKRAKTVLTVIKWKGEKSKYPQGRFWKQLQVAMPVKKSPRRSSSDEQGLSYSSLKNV
Text: as §1
In order to study specific or non-target tissue binding, FDA standard frozen tissue arrays, including 90 tissue cores (30 organs) of 3 individual donors per organ (US Biomax, Rockville, United States) were incubated as previously described. Immunostaining was detected using UltraView Universal DAB Detection Kit (Ventana, USA). Images were acquired and analyzed with NDP.view 2 software. High IL-1RAP (KU812) or negative (Raji) expressing cell lines were respectively used as positive or negative controls. The staining intensity was graduated as follows: negative (0), weak staining (1+), moderate staining (2+), or strong staining (3+). […]

- Staining intensity (0 to 3+) (IL-1RAP; Adrenal gland, replicates): 0
- Staining intensity (0 to 3+) (IL-1RAP; Cerebellum tissue, replicates): 0
- Comments: epithelial cells stained (IL-1RAP; Colon): Epithelial cells (~30%);
- Comments: inflammatory elements stained (IL-1RAP; Colon): inflammatory elements (100%)
- Staining intensity (0 to 3+) (IL-1RAP; Colon, replicates): 3+
- Staining intensity (0 to 3+) (IL-1RAP; Esophagus, replicates): 0
- Staining intensity (0 to 3+) (IL-1RAP; Heart, replicates): 0
- Staining intensity (0 to 3+) (IL-1RAP; Kidney, replicates): 0
- Staining intensity (0 to 3+) (IL-1RAP; Liver, replicates): 0
- Comments: stained elements (IL-1RAP; Lung): Few inflammatory elements
- Staining intensity (0 to 3+) (IL-1RAP; Lung, replicates): 2+
- Comments: endothelial cells stained (IL-1RAP; Lymph node): ~30% of endothelial cells
- Staining intensity (0 to 3+) (IL-1RAP; Lymph node, replicates, listed as mAb#A3C3): 2+ and 1+
- Staining intensity (0 to 3+) (IL-1RAP; Ovary, replicates): 0
- Staining intensity (0 to 3+) (IL-1RAP; Pancreas, replicates): 1+
- Staining intensity (0 to 3+) (IL-1RAP; Peripheral nerve, replicates): 0
- Staining intensity (0 to 3+) (IL-1RAP; Pituitary gland, replicates): 0
- Comments: cytotrophoblast cells stained (IL-1RAP; Placenta): Cytotrophoblast cells (~10%)
- Staining intensity (0 to 3+) (IL-1RAP; Placenta, replicates): 0
- Comments: endothelial cells stained (IL-1RAP; Prostate): ~10% of endothelial cells
- Staining intensity (0 to 3+) (IL-1RAP; Prostate, replicates, listed as mAb#A3C3): 1+ (2×) and 0 (4×)
- Staining intensity (0 to 3+) (IL-1RAP; Salivary gland, replicates): 0
- Comments: endothelial cells stained (IL-1RAP; Skeletal muscle): ~10% of endothelial cells
- Staining intensity (0 to 3+) (IL-1RAP; Skeletal muscle, replicates (first listing), listed as mAb#A3C3): 1+ and 0 (2×)
- Staining intensity (0 to 3+) (IL-1RAP; Skeletal muscle, replicates (second listing)): 0
- Staining intensity (0 to 3+) (IL-1RAP; Skin, replicates): 0
- Comments: epithelial cells stained (IL-1RAP; Small intestine): Epithelial cells (~30%);
- Comments: inflammatory elements stained (IL-1RAP; Small intestine): inflammatory elements (100%)
- Staining intensity (0 to 3+) (IL-1RAP; Small intestine, replicates, listed as mAb#A3C3): 2+ and 0 and 1+
- Staining intensity (0 to 3+) (IL-1RAP; Smooth muscle, replicates): 0
- Staining intensity (0 to 3+) (IL-1RAP; Spinal cord, replicates): 0
- Staining intensity (0 to 3+) (IL-1RAP; Spleen, replicates): 3+
- Comments: epithelial cells stained (IL-1RAP; Stomach): few epithelial cells <10%
- Comments: gastric mucosa cells stained (IL-1RAP; Stomach): Few gastric mucosa cells (~10%);
- Staining intensity (0 to 3+) (IL-1RAP; Stomach, replicates, listed as mAb#A3C3): 1+ and 0 (2×)
- Staining intensity (0 to 3+) (IL-1RAP; Testis, replicates): 0
- Staining intensity (0 to 3+) (IL-1RAP; Thyroid gland, replicates): 0
- Staining intensity (0 to 3+) (IL-1RAP; Ureter, replicates): 0
- Staining intensity (0 to 3+) (IL-1RAP; Uterine cervix, replicates): 0
B1: #E3C3: mouse anti-hIL-1RAP monoclonal antibody subclone generated by standard hybridoma technique; VH SEQ ID NO: 2, VL SEQ ID NO: 4 (antibody, V domains shown)
VH: MGWSCIILFLVATATGVNSQVQLQQPGAELMMPGASVKVSCEASGYTFTDSWMHWVKQRPGQGLEWIGAIDPSDSYTTYNQKFTGKATLSVDESSNTAYMQLSSLTSEDSAVYYCARYYSGSNYISPFPYWGQGTLVTVSA
VL: MESQIQVFVFVFLWLSGVDGDIVMTQSHKFMSTSVGDRVTITCKASLDVSTAVAWYQQKPGQSPKLLIYSASYRYTGVPDRFTGSGSGTDFTFTISSVQAEDLAVYYCQQHYSPPFTFGSGTNLEIK
modifications: Amino acid sequence of chain H (VH) of murine scFv anti-IL-1RAP; Amino acid sequence of chain K (VL) of murine scFv anti-IL-1RAP
- discrimination of IL-1RAP+ stem cell subpopulations [1]: allowed to discriminate IL-1RAP+ leukemia expressing stem cells
- recognition of HMEC-1 cell surface [2]: not recognized
- normal tissues in which staining was detected (IL-1RAP): only 6 tissues as Lymph node, colon, small intestine, placenta, stomach and prostate
- normal tissues in which staining was detected (IL-1RAP; listed as #A3C3): only six tissues: lymph node, prostate, skeletal muscle, stomach, colon and small intestine, and pancreas
- Comments: stained elements (IL-1RAP; Spleen): Necrotic elements
